# Patent US12539272B2, “Microemulsion-based vaccine delivery system, preparation method therefor and use thereof” (Sichuan University, priority 2020, dated 2026)
# Experiments:
# DC2.4 cells = assay: Uptake of the microemulsion vaccine system by the DC2.4 cells (flow cytometer); assay type: cell-based; settings: 1.5 hours at 37° C.
# Description: Uptake of the aluminum hydroxide microemulsion vaccine system by the DC2.4 cells: 1×10^6 DC2.4 cells are implanted in each well of a 12-well plate, put into an incubator for 4-6 hours, 5 μg of FITC labeled OVA or the aluminum hydroxide microemulsion entrapping the same amount of the FITC labeled OVA and prepared according to embodiment 6 are added into each well after cell anchorage. Supernatants are discarded after uptake for 1.5 hours at 37° C., cell surfaces are washed with PBS two times slightly, and then directly blown with the PBS, and the cells are centrifugally washed twice at 2000 rpm for 3 min, finally re-suspended by using 400 μl of PBS, and tested by a flow cytometer. […] In the figure, the Free OVA represents free FITC labeled OVA, and NE-OVA represents the aluminum hydroxide microemulsion entrapping the FITC labeled OVA.
# Uptake of the ferric hydroxide microemulsion vaccine system by the DC2.4 cells: 1×10^6 DC2.4 cells are implanted in each well of a 12-well plate, and put into an incubator for 4-6 hours, and 2 μg of FITC labeled melanoma antigen peptide GP100 (ITDQVPFSV) or the ferric hydroxide microemulsion entrapping the same amount of the FITC labeled melanoma antigen peptide GP100 (ITDQVPFSV) prepared according to embodiment 9 is added into each well after cell anchorage. […]
# mice = assay: Cytotoxic T lymphocyte (CTL) test by CFSE staining method in immunized mice; assay type: in vivo; settings: 25 μl into paws of mice on Day 0, 7, 14; 5 μg OVA, 0.5 μg CpG; CTL on Day 21
# Description: Cytotoxic T lymphocyte (CTL) test and immune antibody testing of the aluminum hydroxide microemulsion vaccine system: 25 μl of the aluminum hydroxide microemulsion entrapping OVA and prepared in embodiment 6, the aluminum hydroxide microemulsion entrapping OVA and CpG and prepared in embodiment 7, and free OVA or free OVA and CpG (including 5 μg of OVA and 0.5 μg of CpG) are injected into paws of immunized mice on Day 0, Day 7 and Day 14, and CTL response in the body is tested by a CFSE staining method on Day 21. […] In the figure, OVA represents free OVA, NE-OVA represents the aluminum hydroxide microemulsion entrapping OVA, OVA+CpG represents free OVA and CpG, and NE-OVA-CpG represents the aluminum hydroxide microemulsion entrapping OVA and CpG.
Molecule,uptake by the DC2.4 cells (in words) (DC2.4 cells; 2 μg FITC labeled GP100 per well),uptake by the DC2.4 cells (in words) (DC2.4 cells; 5 μg FITC labeled OVA per well),antigen-specific cellular immune response (CTL) (mice)
"melanoma antigen peptide GP100 (ITDQVPFSV) [Free-GP100, reference compound]",barely taken up,,
"chicken ovalbumin (protein, UniProt P01012 2-386, looked up, FITC label in uptake test, free model antigen chicken ovalbumin (OVA); FITC labeled in the uptake test) Ovalbumin: GSIGAASMEFCFDVFKELKVHHANENIFYCPIAIMSALAMVYLGAKDSTRTQINKVVRFDKLPGFGDSIEAQCGTSVNVHSSLRDILNQITKPNDVYSFSLASRLYAEERYPILPEYLQCVKELYRGGLEPINFQTAADQARELINSWVESQTNGIIRNVLQPSSVDSQTAMVLVNAIVFKGLWEKAFKDEDTQAMPFRVTEQESKPVQMMYQIGLFRVASMASEKMKILELPFASGTMSMLVLLPDEVSGLEQLESIINFEKLTEWTSSNVMEERKIKVYLPRMKMEEKYNLTSVLMAMGITDVFSSSANLSGISSAESLKISQAVHAAHAEINEAGREVVGSAEAGVDAASVSEEFRADHPFLFCIKHIATNAVLFFGRCVSP",,barely taken up,cannot induce the antigen-specific cellular immune response
